From patent publication US20200277373A1, “ANTI-TREM2 ANTIBODIES AND METHODS OF USE THEREOF” (Denali Therapeutics Inc., priority 2017, published 2020)
Blank lines part the entries; values can stand above or below the molecule they belong to.

Columns and labels:
soluble TREM2 (sTREM2) = target: T1, soluble TREM2 (sTREM2) (Homo sapiens, UniProt Q9NZC2); experiment: Soluble TREM2 (TREM2 shedding) assay in HEK293 TREM2/DAP12 cells; format: cell-based; design: key to STREM2: NC = no change; −− = reduced sTREM2; ++ = increased sTREM2; details: change in sTREM2 levels
T1 construct: expressed in transfected cells
T1 sequence (O43914 22-113 partner, one chain of several): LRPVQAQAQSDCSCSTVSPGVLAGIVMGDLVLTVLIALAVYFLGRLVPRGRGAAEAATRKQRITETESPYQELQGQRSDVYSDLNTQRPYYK
Procedure: HEK293 cells stably expressing human TREM2 and DAP12 were plated onto 96-well plates pre-coated with poly-D-lysine 4-16 hours prior to antibody treatment. Antibody supernatants or control antibodies were diluted into fresh complete media and added onto cells in triplicate. Cells were incubated with antibody containing media for 18 hours prior to removal of the cell supernatant for assay by TREM2 ELISA. Samples and standards were diluted 1:10 into blocking buffer (3% BSA/TBST) in the assay plate. Briefly, MSD small spot streptavidin plates were coated with biotinylated anti-hTREM2 polyclonal antibody (R&D Systems) overnight at 4° C. or 1 hour at room temperature. Plates were then blocked overnight at 4° C., or 1 hour at room temperature, with blocking buffer, 3% BSA/TBST. Plates were washed three times with TBST in a Biotek plate washer (used for all washes) prior to addition of diluent (blocking buffer) and denatured supernatants from cell culture. A TREM2-His protein diluted in 3% BSA/TBST was used as a standard for absolute quantification. Following 1 hour incubation at room temperature, plates were washed with TBST. The primary detection antibody, sulfo-tagged goat anti-human TREM2 (R&D Systems), diluted in 3% BSA/TBST was added and incubated for 1 hour at room temperature. After washing with TBST, MSD plates were developed using 2×MSD read buffer T, followed by detection using an MSD Sector plate reader. MSD values were converted to absolute quantities of sTREM2 by fitting a standard curve using Prism 7.0 software (Graphpad). Modulation of TREM2 shedding was represented as a ratio to cells cultured with no specific TREM2 antibody in the media.

hTREM2 = target: T2, hTREM2 (Homo sapiens, UniProt Q9NZC2); experiment: Biacore T200 binding kinetics to hTREM2; details: analyte hTREM2
T2 construct: The ecto domain (residues 19-172) of TREM2 (UniProtKB—Q9NZC2); secretion signal of mouse Ig kappa chain V-III (P01661 aa 1-20) (N); made in house; host or cells: Expi293F
T2 sequence (Q9NZC2 19-172): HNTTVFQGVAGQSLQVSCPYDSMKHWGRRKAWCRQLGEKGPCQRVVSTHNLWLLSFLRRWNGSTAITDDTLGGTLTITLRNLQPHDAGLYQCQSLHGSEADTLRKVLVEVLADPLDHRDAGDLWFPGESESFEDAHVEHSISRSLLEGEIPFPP
Procedure: The binding of the TREM2/TfR-binding protein RS9.F6/3C35.21.17 to TREM2 and TfR was measured using SPR on a Biacore T200 instrument. To measure TfR binding, anti-human-Fab was immobilized on a CM5 chip, and the TREM2/TfR-binding protein was captured. Full-length human TfR or human TfR apical domain at serial dilution (e.g., concentrations of 1-1000 nM) was flowed over the chip (180 second association time) and then allowed to dissociate. Fitting was performed using a 1:1 binding model. To measure TREM2 binding, anti-human-Fc antibody was immobilized on a CM5 chip, and the TREM2/TfR-binding protein was captured. A range of concentrations of recombinant TREM2-His protein were flowed over the chip, and allowed to associate and dissociate. The resulting sensograms were fitted using a 1:1 Langmuir model to estimate kon and koff (FIG. 10).
The affinities of RS9.F6/3C35.21.17 for human TREM2 and TfR were determined by surface plasmon resonance using a Biacore™ T200. Biacore Series S CM5 sensor chips were immobilized with a mixture of two monoclonal mouse anti-Fab antibodies (Human Fab capture kit from GE Healthcare). Serial 3-fold dilutions of each antigen were injected at a flow rate of 30 μL/min. The binding of the antigens to captured antibody was monitored for 30 to 180 seconds and then their dissociation was monitored for 30-300 seconds in HBS-EP+running buffer (GE, # BR100669). Binding response was corrected by subtracting the RU from a blank flow cell. A 1:1 Languir model of simultaneous fitting of kon and koff was used for kinetics analysis.

TREM2 = target: T3, TREM2 (Homo sapiens, UniProt Q9NZC2); experiment: TREM2 PAM/pSyk assay on human macrophages; format: cell-based; details: for effect on lipid ligand activation of TREM2 (in words): FIG. 9B, human macrophages; for Slope + Liposome: pSyk, 10 nM antibody with 0, EC20, EC50, EC80 PS/PC liposomes, liposome-alone signal subtracted
T3 construct: macrophage cells that endogenously express TREM2; endogenous in cells; host or cells: primary human monocyte-derived macrophages from donor blood
T3 sequence (Q9NZC2 19-230): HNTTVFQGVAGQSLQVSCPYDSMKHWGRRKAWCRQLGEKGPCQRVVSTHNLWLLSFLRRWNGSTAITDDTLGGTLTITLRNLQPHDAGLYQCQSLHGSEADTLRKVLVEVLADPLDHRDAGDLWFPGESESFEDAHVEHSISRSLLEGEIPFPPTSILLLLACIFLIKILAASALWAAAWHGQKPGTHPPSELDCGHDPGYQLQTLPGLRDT
Procedure: Human macrophages were differentiated from donor blood using a human monocyte enrichment cocktail (Stem Cell Technologies) and culturing monocytes with human mCSF for five days in macrophage media (RPMI+10% Hyclone FBS+Glutamax+Pen/Strep+non-essential amino acids+sodium pyruvate). On the fifth day, the human macrophages were scraped from the flasks and were re-plated at 100,000 cells/well on a 96-well poly-D-lysine-coated plate in the macrophage media (without mCSF). The cells were incubated for 24 hours to adhere, then the media was removed.
Antibodies pre-mixed with lipid vesicles comprised of 70% DOPC and 30% POPS (made according to the procedure for making vesicles described above) diluted in HBSS were immediately added to the cells, and allowed to incubate for 5 minutes at 37° C. The liposome/antibody solution was removed, and 35 μL lysis buffer (Cell Signaling Technologies, CST) was added using the liquid handler. The lysate was then incubated at 4° C. for 30 minutes, then either frozen at −80° C. or immediately carried forward to a pSyk AlphaLISA assay as described above. […] The results of the assay are shown in FIG. 9B and in Table 8 below.

- STREM2 (soluble TREM2 (sTREM2)): NC
B1: 21D11: anti-TREM2 antibody clone; VH SEQ ID NO:14, VL SEQ ID NO:25 (antibody, V domains shown)
VH: QVQLQQSGAELARPGASVKLSCKASGYTFTSYWIQWVKQRPGQGLEWIGTIYPGDGDARYTQKFKGKATLTADKSSSTTYMQLNSLASEDSAVYYCARNGITTAGYYAMDYWGQGTSVTVSS
VL: DIQMTQSPASLSVSVGETVTITCRASENIYSNLAWYQQKQGRSPQLLVYAATNLADGVPSRFSGSGSGTQYSLKINSLQSEDFGYYYCQHFWGTPYTFGGGTKVEIK

- STREM2 (soluble TREM2 (sTREM2)): NC
- ka (hTREM2): 150000 M⁻¹ s⁻¹
- kd (hTREM2): 0.00034 s⁻¹
- effect on lipid ligand activation of TREM2 (in words) (TREM2): at least an additive effect
- Slope + Liposome (TREM2): 878
B2: RS9.F6: anti-TREM2 antibody clone; VH SEQ ID NO:24, VL SEQ ID NO:35 (antibody, V domains shown)
VH: QVQLQQPGAELVKPGASVKLSCKASGYTFTSYWMHWVKQSPGRGLEWIGRSDPTTGGTNYNEKFKTKATLTVDKPSSTAYMQLSSLTSDDSAVYYCVRTSGTGDYWGQGTSLTVSS
VL: DVVMTQTPLSLPVSLGDQASISCRSSQSLVHNNGNTFLHWYLQKPGQSPKLLIYKVSNRFSGVPDRFSGSGSGTDFTLKISRVEAEDLGVYFCSQTTHVPPTFGGGTKLEIK

- STREM2 (soluble TREM2 (sTREM2)): NC
- ka (hTREM2): 480000 M⁻¹ s⁻¹
- kd (hTREM2): 0.019 s⁻¹
- effect on lipid ligand activation of TREM2 (in words) (TREM2): at least an additive effect
- Slope + Liposome (TREM2): 94
B3: 3D3.A1: anti-TREM2 antibody clone; VH SEQ ID NO:18, VL SEQ ID NO:29 (antibody, V domains shown)
VH: EVQLQQSGPELVKPGASVKISCKTSGYTLSEYTMHWVIQSHGKSLEWIGGVIPNSGGTSYNQKFRDKASLTVDKSSSTAYLELRSLTSEDSAVYYCARGDDSYRRGYALDYWGQGTSVTVSS
VL: DIVMSQSPSSLAVSVGEKVTMSCKSSQSLLYSSNQKSYLAWYQQKPGQSPKLLIYWASTRESGVPDRFRGSGSGTDFTLTISSVKAEDLAVYYCQQYFSYPPTFGGGTKLEIK
